In paper PMC7335050 (2020):

Target: T1, BAKΔTM (human, UniProt Q16611 1-186)
T1 chain: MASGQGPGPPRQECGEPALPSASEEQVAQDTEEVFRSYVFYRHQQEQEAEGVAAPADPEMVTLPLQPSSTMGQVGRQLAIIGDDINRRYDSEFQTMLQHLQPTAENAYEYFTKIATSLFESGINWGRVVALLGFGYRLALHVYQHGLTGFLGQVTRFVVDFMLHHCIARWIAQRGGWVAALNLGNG
Assay: SPR

Row | Binder | Kd [µM]
1 | MEGSDALALRLACIGDEMDVSLRAPR [BIK BH3 peptide] | > 10
2 | NLWAAQRYGRELRRMSDEFVDSFKK [BAD BH3 peptide] | > 10
